Experimental data reported in patent US20150072922A1, “RNASE 7 ANTIMICROBIAL PEPTIDES” (THE RESEARCH INSTITUTE AT NATIONWIDE CHILDREN'S HOSPITAL, priority 2012, published 2015).
“Also recorded” adds a separate entry of the source.

Tests used:
Escherichia coli (UTI89) = assay: SYTOX Green bacterial cell death / membrane permeabilization assay; format: cell-based; conditions: 3 hours, FIG. 1, compared to full-length
Description: (§1) Assays of the permeabilization of bacterial membrane were performed with SYTOX green nucleic acid stain (Invitrogen™). The overnight cultures of bacteria were centrifuged at 5000 rpm for 5 min, the pellets were then washed with water and resuspended in water with an OD=0.5. 90 μl of each bacteria were then incubated with 10 μl of peptides with different concentrations for 3 hours at 37° C. in a 96-well plate. 100 μl of 2 μM SYTOX Green (Invitrogen™) were then added to each well and incubated in dark for 15 min. SYTOX green penetrates cells with compromised membranes not the membranes of live cells. The increase of fluorescence was measured using […] filters for excitation and emission wavelengths, respectively. Bacteria alone and bacteria treated with 70% ethanol were used as controls and the fluorescence from each was recorded as Fmin and Fmax. The percentage of cell death at each concentration for each fragment was calculated as below: death %=(F−Fmin)/(Finax−Fmin)*100%
(§2) To confirm the accuracy of our MIC/MBC data, cell death assays using SYTOX Green (Invitrogen), which selectivity labels nucleic acids of cells with compromised membranes of dead/dying cells were performed. Overnight cultures of bacteria were centrifuged at 5000 rpm for 5 minutes. Pellets were then washed with PBS (pH 7.4) and resuspended in PBS to an OD600 of 0.5 for Escherichia coli (UTI89) and OD600 of 0.8 for Staphylococcus saprophyticus. Per manufacturerer's instructions, 90 μl of each bacteria strain were incubated with 100 μl of 2 uM SYTOX Green for 15 minutes. Ten microliters of peptides at various concentrations were added for 3 hours at 37° C. in a 96-well plate. Compromised bacterial membranes of dead/dying cells will be labeled while lives cells are not labeled as noted by Invitrogen. Fluorescence was measured using 485 and 520-nm filters for excitation and emission wavelengths, respectively. Untreated bacteria were used as a 100% live control, and fluorescence was noted as Fmin. To elicit complete killing, bacteria were treated with 70% ethanol for 1 hour. This experimental group's fluorescence was noted as Fmax. The percentage of cell death at each concentration for each fragment was calculated as (Ffragment−Fmin)/(Fmax−Fmin)×100%.

[1] = system: Staphylococcus saprophyticus; assay: as above; format: cell-based; conditions: 3 hours, FIG. 2, compared to full-length
Description: as §1, §2

[2] = system: E. Coli, P. aeruginosa and E. faecalis; assay: Atomic Force Microscopy of bacterial morphology; format: cell-based; conditions: twice the MIC, 1×10^9 cfu, FIG. 13
Description: (See FIG. 13) 1×10^9 cfu of E. Coli, P. aeruginosa and E. faecalis were incubated with twice the MIC of RNase 7. Ultra-pure water was used as a negative control. AFM imaging was performed with the Multimode AFM instrument (Veeco, Santa Barbara, Calif.) at Ohio State.

human erythocytes = format: cell-based
Description: Hemolytic assay: To determine the hemolytic activity of RNase 7, washed human erythocytes are incubated for 1 hour at 37° C. with a serial two-fold dilution of recombinant RNase 7 and its fragments in pyrogen free saline. After incubation, centrifugation to remove intact erythrocytes and a 10-fold dilution of supernatant, the concentration of released hemoglobin is measured in a micotitre plate reader at 405 nm. (Biochem J. Feb. 15 2008; 410(1):113-122) The peptide concentration that results in 50% hemolysis of erythrocytes will be designated the HC50.

[3] = system: ATCC non-uropathogenic strains; assay: RNase7 antibacterial activity, MIC on laboratory strains; format: cell-based; conditions: ATCC non-uropathogenic strains (N=3 distinct strains)
From the text: (§3) Laboratory bacterial strains from the American Type Culture Collection (ATCC, Manassas, Va.) and strains isolated from positive urine cultures were obtained from the Microbiology Laboratory at Nationwide Children's Hospital.

[4] = system: Human primary bladder urothelial cells and renal medullary epithelial cells; assay: Cytotoxic assay; format: cell-based
Description: Cytotoxic assay: The urothelial cells that line the bladder and distal nephron epithelial cells are the primary areas of RNase7 protein expression in the kidney and urinary tract. Thus, the cytotoxicity of variant peptides on these epithelia is determined. Human primary bladder urothelial cells (Catalog #4320, ScienCell Research Laboratories, Carlsbad, Calif.) and renal medullary epithelial cells (Catalog # FC-0018, Lifeline Cell Technology, Frederick, Md.) are cultured according to the manufacture's instructions. Cytotoxicity is measured with the Live/Dead Viability/Cytotoxicity Kit for mammalian cells (Catalog number # L3224, Invitrogen/Molecular Probes, Eugene Oreg.) according to the manufacturer's fluorescence microplate protocol and expressed as the percentage of viable cells after treatment with serial two-fold dilutions of RNase 7 and its deletion fragments incubated for 1 hour at 37° C. The results of the cytotoxic assay are reported as the EC50 or the concentration that results in 50% cell death.

uropathogenic E. coli = assay: RNase7 antibacterial activity, MIC on strains isolated from positive urine cultures; format: cell-based, Escherichia coli; conditions: uropathogenic E. coli isolated from urine cultures (N=3)
From the text: as §3

Row | Molecule | membrane permeabilization and death, E. coli (in words) (Escherichia coli (UTI89)) | membrane permeabilization and death, S. saprophyticus (in words) [1] | morphological effect on bacteria (AFM) [2] | hemolytic properties (human erythocytes) | mean inhibitory concentration (MIC) [3] [µM] | cytotoxic properties [4] | mean inhibitory concentration (MIC) (uropathogenic E. coli) [µM]
1 | F:1-97: recombinant N-terminal RNase 7 fragment, amino acids 1 to 97 (SEQ ID NO: 5), N-terminal His tag (protein, listed as Homo sapiens, N-terminal His tag) KPKGMTSSQWFKIQHMQPSPQACNSAMKNINKHTKRCKDLNTFLHEPFSSVAATCQTPKIACKNGDKNCHQSHGPVSLTMCKLTSGKYPNCRYKEKR | increased permeability; also recorded: improved activity compared to the full-length protein; also recorded: increased membrane permeabilization and subsequent death against both strains | increased permeability; also recorded: improved activity compared to full-length; also recorded: increased membrane permeabilization and subsequent death against both strains |  |  |  |  | 
2 | RNase7: recombinant full-length human Ribonuclease 7, amino acids 1-128 (SEQ ID NO: 1), N-terminal His tag (protein, listed as Homo sapiens, N-terminal His tag) KPKGMTSSQWFKIQHMQPSPQACNSAMKNINKHTKRCKDLNTFLHEPFSSVAATCQTPKIACKNGDKNCHQSHGPVSLTMCKLTSGKYPNCRYKEKRQNKSYVVACKPPQKKDSQQFHLVPVHLDRVL |  |  | direct bacteriocidal effects on multiple microbes | no cytoxic or hemolytic properties | 1.3 | no cytoxic or hemolytic properties | 2.5
